Here are results for two molecules from patent US10456446B2, “Use of human small leucine zipper protein in osteogenesis procedure” (Korea University Research and Business Foundation, priority 2013, dated 2019).

The target of one assay is T1, HDAC3 (Homo sapiens, UniProt O15379).
T1 construct: expressed in transfected cells; host or cells: 293T
The experiment in a line: HDAC3 ubiquitination, GST pull-down with Ha-UB in 293T cells. To be noted: ligand treated (10 nM RZD, 24 hours). The assay is classed as cell-based. As to the method:
Therefore, in order to understand a regulation mechanism of sLZIP in the PPARγ2 transcriptional activity by binding to the FABP4 promoter region, an effect of sLZIP on the interaction between PPARγ2 and HDAC3 was examined. For this purpose, 293T cells were transfected with GST-HDAC3, Myc-PPARγ2 and Flag-sLZIP, and were treated or not treated with 10 nM of RZD for 24 hours. Cell lysates were subjected to GST pull-down analysis using a glutathione 4B bead, and a protein complex was analyzed in SDS-PAGE, and then immunoblotted with anti-GST, anti-Myc and anti-Flag antibodies (FIG. 6A). GST-HDAC3, GST-PPARγ2, Myc-PPARγ2, Flag-sLZIP and Ha-UB were expressed in the 293T cells, and the cells were treated with 10 nM of RZD for 24 hours. Cell lysates were subjected to GST pull-down analysis (FIG. 6B). GST-PPARγ2 and Flag-sLZIP were expressed in the 293T cells and treated with 10 nM of RZD for 24 hours. Cell lysates were subjected to GST pull-down analysis, and a protein complex was analyzed in SDS-PAGE, and then immunoblotted with anti-PGC1α, anti-GST and anti-Flag antibodies (FIG. 6C).

The next assay deals with T2, PPARγ2 (Homo sapiens, UniProt P37231).
T2 construct: expressed in transfected cells; host or cells: 293T
T2 sequence (P37231 1-505): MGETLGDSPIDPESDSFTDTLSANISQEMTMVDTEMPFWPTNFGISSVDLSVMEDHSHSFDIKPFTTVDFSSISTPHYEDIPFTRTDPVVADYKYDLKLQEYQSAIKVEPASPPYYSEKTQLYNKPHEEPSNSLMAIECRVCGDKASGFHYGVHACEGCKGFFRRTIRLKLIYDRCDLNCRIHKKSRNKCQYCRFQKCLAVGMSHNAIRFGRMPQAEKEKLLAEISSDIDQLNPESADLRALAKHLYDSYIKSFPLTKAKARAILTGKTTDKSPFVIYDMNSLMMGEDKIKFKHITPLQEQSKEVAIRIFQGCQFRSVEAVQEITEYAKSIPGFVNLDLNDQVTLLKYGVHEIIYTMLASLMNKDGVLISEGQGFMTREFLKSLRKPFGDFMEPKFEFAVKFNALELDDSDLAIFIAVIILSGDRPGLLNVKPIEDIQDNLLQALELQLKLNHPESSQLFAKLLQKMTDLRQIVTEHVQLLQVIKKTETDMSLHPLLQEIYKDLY
The experiment in a line: PPARγ2 transcriptional activity, FABP4-Luc luciferase reporter in transfected 293T cells. The assay is classed as cell-based. To be noted: for PPARγ2 transcriptional activity (relative luciferase activity): sLZIP or deletion mutants 0.1 μg, RZD treated. As for the experimental part: C3H10T1/2 and 293T cells were plated in a 12-well culture dish at a density of 2×10^5 cells/well and incubated for 24 hours. Then, according to instructions of the manufacturer, the cells were transfected with a 0.2 μg of reporter genes and 0.1 to 0.5 μg of a laboratory plasmid using Lipofectamine 2000 or Genefectine. After 24 hours, the cells were cultured in a serum-free DMEM with or without 10 nM of rosiglitazone. siRNAs were prepared using sLZIP and HDAC target sequences (Table 1). For an RNA interference experiment, according to instructions of the manufacturer, the cells were transfected with scrambled control group RNA and appropriate siRNAs using Lipofectamine 2000. Human MSC and C3H10T/1/2 cells were infected with an adenovirus vector containing cDNA of human sLZIP or an empty vector. The infected medium was exchanged with a fresh medium after two hours.
Appropriately transfected cells were washed with cold PBS twice, and a reporter lysis buffer (Promega) was used and lysed in a culture dish. Luciferase analysis was performed using a luciferase analysis system (Promega Corporation, Madison, Wis.). A luciferase activity was recorded in Luminometer 20/20^n (Turner BioSystems, Sunnyvale, Calif.) according to instructions of the manufacturer. The luciferase activity was normalized to a β-galactosidase activity. For β-galactosidase analysis, CMV-β-galactosidase was transfected with luciferase reporter genes. All pieces of data were represented as mean±standard deviation of the results from at least three independent experiments.
In order to examine an effect of sLZIP on the transcriptional activity of PPARγ2, 293T cells were temporarily transfected with PPARγ2 (0.5 μg), β-galactosidase (0.1 μg), FABP4-Luc reporter genes (0.2 μg) and sLZIP at different contents (0.1 to 0.5 μg). After the transfection, the cells were stimulated with or without 10 nM of rosiglitazone (RZD) (FIG. 1A), pioglitazone (PZD) (FIG. 1B), and troglitazone (TZD) (FIG. 1C). A relative luciferase activity was analyzed with or without cell ligand treatment 24 hours after transfection. Also, the 293T cells were transiently transfected with si-sLZIP at different contents (50 and 100 nM), and the cells were treated or not treated with RZD (FIG. 1D). FABP4-Luc stable C3H10T1/2 cells were infected with a sLZIP-expressing adenovirus, and then differentiated into adipocytes for 4 days (FIG. 1E). A luciferase activity was normalized to a β-galactosidase activity and represented as a relative activity (fold change). All experiments were repeated three times, and bars in the graph represent mean±standard deviation. *, P<0.05; **, P<0.01
For this purpose, 293T cells were transiently transfected with PPARγ2 (0.5 μg), β-galactosidase (0.1 μg), FABP4-Luc reporter genes (0.2 μg) and sLZIP (0.1 μg). After the transfection, the cells were stimulated with or without 10 nM of RZD and 10 nM of TSA (FIG. 4A). A promoter activity was measured according to luciferase analysis. In the 293T cells, FABP4-Luc reporter genes, sLZIP, PPAR, β-galactosidase, and 100 nM of si-RNAs and HDAC1, 2, 3 and 8 for a control group were expressed. After the transfection, the cells were stimulated with or without 10 nM of RZD, and a promoter activity was measured (FIG. 4B). 293T cells were temporarily transfected with FABP4-Luc reporter genes, PPARγ2, β-galactosidase, HDAC3 (0.5 μg) and sLZIP (0.1 μg). After the transfection, the cells were stimulated with or without 10 nM of RZD, and luciferase analysis was performed (FIG. 4C). A luciferase activity was normalized to a β-galactosidase activity and represented as a relative intensity (fold change). All experiments were repeated three times, and bars in the graph represent mean±standard deviation. GFP-sLZIP expression constructs were expressed in C3H10T1/2 cells, rabbit anti-HDAC3 antibodies and Texas Red-labeled anti-rabbit antibodies were used and analysis was performed under a fluorescence microscope. The nucleus was stained with DAPI (FIG. 4D). […]
For orientation: Reporter assays use an easily measured gene product as a stand-in for the process of interest.

T1 sequence (O15379 whole entry, species assumed): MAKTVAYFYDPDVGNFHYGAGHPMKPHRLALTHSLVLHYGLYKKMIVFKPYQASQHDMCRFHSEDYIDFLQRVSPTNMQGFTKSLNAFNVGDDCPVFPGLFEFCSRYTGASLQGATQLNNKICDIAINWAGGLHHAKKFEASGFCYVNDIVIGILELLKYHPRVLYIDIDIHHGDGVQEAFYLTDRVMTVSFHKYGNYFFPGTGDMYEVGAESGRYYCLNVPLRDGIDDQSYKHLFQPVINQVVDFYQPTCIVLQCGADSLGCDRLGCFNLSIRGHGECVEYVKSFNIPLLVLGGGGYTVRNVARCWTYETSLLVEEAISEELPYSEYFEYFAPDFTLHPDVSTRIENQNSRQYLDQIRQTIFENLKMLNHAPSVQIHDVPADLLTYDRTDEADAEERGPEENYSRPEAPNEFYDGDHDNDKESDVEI

B1: sLZIP: human small leucine-zipper protein, isoform of LZIP, 354 amino acids, no transmembrane domain, GenBank FJ263669, SEQ ID NO: 1 (protein, listed as Homo sapiens)
chain: MELELDAGDQDLLAFLLEESGDLGTAPDEAVRAPLDWALPLSEVPSDWEVDDLLCSLLSPPASLNILSSSNPCLVHHDHTYSLPRETVSMDLESESCRKEGTQMTPQHMEELAEQEIARLVLTDEEKSLLEKEGLILPETLPLTKTEEQILKRVRRKIRNKRSAQESRRKKKVYVGGLESRVLKYTAQNMELQNKVQLLEEQNLSLLDQLRKLQAMVIEISNKTSSSSMYSSDTRGSLPAEHGVLSRQLRALPSEDPYQLELPALQSEVPKDSTHQWLDGSDCVLQAPGNTSCLLHYMPQAPSAEPPLEWPFPDLFSEPLCRGPILPLQANLTRKGGWLPTGSPSVILQDRYSG
For the molecule B1, the HDAC3 ubiquitination entry with HDAC3 was “inhibited HDAC3 ubiquitination”. In addition, the “sLZIP-mediated PPARγ2 transcriptional activity” value with PPARγ2 (sLZIP 0.1 μg together with HDAC3 0.5 μg, with or without 10 nM RZD) is given as “significantly down-regulated”. Also, the “transcriptional activity of PPARγ2 (relative luciferase activity)” value with PPARγ2 (sLZIP 0.1 μg, cells treated with 10 nM TSA) is given as “did not decrease the transcriptional activity of PPARγ2”; with PPARγ2 (sLZIP 0.1 μg, no TSA), “inhibits the transcriptional activity of PPARγ2”; with PPARγ2 (sLZIP 0.1 to 0.5 μg, with or without 10 nM RZD, PZD or TZD, 24 hours) it was “inhibits the transcriptional activity of PPARγ2 in a concentration-dependent manner”. In addition, the “PPARγ2 transcriptional activity (relative luciferase activity)” value with PPARγ2 is listed as “still inhibited the PPARγ2 transcriptional activity”.

B2: N domains of sLZIP: N-terminal deletion mutant of sLZIP (1-228) (protein)
chain: MELELDAGDQDLLAFLLEESGDLGTAPDEAVRAPLDWALPLSEVPSDWEVDDLLCSLLSPPASLNILSSSNPCLVHHDHTYSLPRETVSMDLESESCRKEGTQMTPQHMEELAEQEIARLVLTDEEKSLLEKEGLILPETLPLTKTEEQILKRVRRKIRNKRSAQESRRKKKVYVGGLESRVLKYTAQNMELQNKVQLLEEQNLSLLDQLRKLQAMVIEISNKTSSSS
modifications: left off: a dimerising Fc or GST
As to B2, the “PPARγ2 transcriptional activity (relative luciferase activity)” value in the assay with PPARγ2 is reported as “inhibited”.
